Laboratory results from patent US20230265146A1 (AMUNIX PHARMACEUTICALS, published 2023).

Molecular target: T1, human IL-12 receptor on HEK-Blue IL-12 reporter cells (human, UniProt P42701 24-662; Q99665 24-862)
T1 construct: whole, on cells; also called 293 HEK-IL-12 reporter cells; HEK-Blue IL12 reporter cells (InvivoGen)
Assay: Flow cytometry (MFI AF488) on HEK-Blue IL-12 reporter cells; bound protein detected with a fluorescent anti-His-tag antibody
Method: HEK-Blue IL-12 reporter cells (Invivogen, as described in Example 8) that express the human IL-12 receptor were used to assess binding of the IL12 constructs to the IL-12 receptor. Increasing concentrations of an exemplified “XTENylated IL12” construct (SEQ ID NO: 2) (1 μM) containing a recombinant single chain mouse IL12 with an N-terminal his-tag plus an XTEN sequence followed by a release segment sequence were incubated with 50,000 293HEK-IL-12 reporter cells that were subsequently washed and surface bound IL12 monitored by flow cytometry using a fluorescent-labelled anti-His-tag antibody for detection. Binding by the XTENylated IL12 was compared to binding of the reference IL-12 construct (SEQ ID NO:4) that contained a recombinant single chain mouse IL-12 and a C-terminal His-tag. Due to release of the His-tag from the XTENylated IL-12 following its activation with human matrix metallopeptidase 9 (MMP9), we were unable to assess IL-12 binding of its activated form in this assay. The XTEN fragment released by MMP9 cleavage retained the His-tag and was used as a specificity control for binding. As shown in FIGS. 9A-9B, the XTEN, when present in the fusion protein masked the cytokine binding to its corresponding IL12 receptor.

T1 sequence (Q99665 24-862, chain 2 of 2, other chains not shown): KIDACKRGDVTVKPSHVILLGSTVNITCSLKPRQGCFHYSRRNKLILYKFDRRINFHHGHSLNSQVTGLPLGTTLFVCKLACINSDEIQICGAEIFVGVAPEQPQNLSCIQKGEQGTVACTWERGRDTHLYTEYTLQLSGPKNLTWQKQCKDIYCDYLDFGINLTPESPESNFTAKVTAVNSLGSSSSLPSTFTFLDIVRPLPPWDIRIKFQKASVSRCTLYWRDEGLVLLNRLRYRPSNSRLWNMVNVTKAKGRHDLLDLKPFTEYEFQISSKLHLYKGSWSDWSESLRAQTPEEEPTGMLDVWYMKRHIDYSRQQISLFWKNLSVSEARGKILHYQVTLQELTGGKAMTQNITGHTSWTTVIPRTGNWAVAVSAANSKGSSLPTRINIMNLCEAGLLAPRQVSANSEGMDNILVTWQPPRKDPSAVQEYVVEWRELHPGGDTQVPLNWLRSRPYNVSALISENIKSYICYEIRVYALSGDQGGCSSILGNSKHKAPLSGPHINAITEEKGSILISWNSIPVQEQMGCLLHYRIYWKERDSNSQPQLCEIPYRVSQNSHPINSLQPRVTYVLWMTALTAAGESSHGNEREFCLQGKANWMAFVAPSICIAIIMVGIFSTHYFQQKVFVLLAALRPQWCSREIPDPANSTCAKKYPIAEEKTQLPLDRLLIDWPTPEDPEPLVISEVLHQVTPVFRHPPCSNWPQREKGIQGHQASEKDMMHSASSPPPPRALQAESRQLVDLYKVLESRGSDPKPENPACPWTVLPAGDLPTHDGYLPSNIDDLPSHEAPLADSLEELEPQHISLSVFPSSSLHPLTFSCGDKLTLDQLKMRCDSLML

EC50: 4.5 nM
B1: Reference IL12 construct (SEQ ID NO: 4) (ligand)
chain: MWELEKDVYVVEVDWTPDAPGETVNLTCDTPEEDDITWTSDQRHGVIGSGKTLTITVKEFLDAGQYTCHKGGETLSHSHLLLHKKENGIWSTEILKNFKNKTFLKCEAPNYSGRFTCSWLVQRNMDLKFNIKSSSSSPDSRAVTCGMASLSAEKVTLDQRDYEKYSVSCQEDVTCPTAEETLPIELALEARQQNKYENYSTSFFIRDIIKPDPPKNLQMKPLKNSQVEVSWEYPDSWSTPHSYFSLKFFVRIQRKKEKMKETEEGCNQKGAFLVEKTSTEVQCKGGNVCVQAQDRYYNSSCSKWACVPCRVRSGGGGSGGGGSGGGGSRVIPVSGPARCLSQSRNLLKTTDDMVKTAREKLKHYSCTAEDIDHEDITRDQTSTLKTCLPLELHKNESCLATRETSSTTRGSCLPPQKTSLMMTLCLGSIYEDLKMYQTEFQAINAALQNHNHQQIILDKGMLVAIDELMQSLNHNGETLRQKPPVGEADPYRVKMKLCILLHAFSTRVVTINRVMGYLSSAHHHHHHHH
